From PMC8207546

Tests used:
[1] = in vitro fusion of GFP-LC3 and LAMP2B-mCherry vesicles; settings: glycan gained; control: non-O-GlcNAcylated His-GRASP55
[2] = LC3-LAMP2 co-IP with added recombinant GRASP55; settings: glycan gained; control: non-O-GlcNAcylated His-GRASP55 (coexpressed with GST)

Row | Substance | other: autophagosome-lysosome fusion activity [1] | other: bridging of LC3-LAMP2 interaction [2]
1 | GRASP55: O-GlcNAcylated His-GRASP55 | decreases | –
2 | GRASP55: O-GlcNAcylated His-GRASP55 (coexpressed with GST-OGT) | – | decreases
